Source: patent publication US20150010525A1, “Catalytic Tagging System to Study Macro-Molecular Interactions Using Engineered Ubiquitin Ligase and Ubiquitin-Like Proteins to Facilitate Substrate Identification” (THE REGENTS OF THE UNIVERSITY OF CALIFORNIA, priority 2012, published 2015)

Molecular target: T1, cIAP1 (Homo sapiens, UniProt P61081+Q13490)
T1 construct: cIAP1(ΔR) (residues 1-555); GST (N, cleaved yes); made in house; host or cells: E. coli BL21 (DE3)
Experiment: SILAC mass spectrometry screen for cIAP1 substrates with NEDDylator^cIAP1 in apoptotic Jurkat cell lysate
Type: biochemical
Conditions: Light lysate with NEDDylator^cIAP1, Heavy lysate with Ubc12
Description: Jurkat cells were grown in media containing either light or heavy isotopes of lysine and arginine and induced to undergo apoptosis with STS. Light cell extracts were incubated with the respective catalytic tagging system for each of the two IAPs and the heavy extracts labeled only with the wild-type NEDD8 E2, Ubc12. […] 100 mg ^13C6^15N2 L-Lys.2HCl and 86 mg ^13C6 L-Arg.HCl (Cambridge Isotope) were added to the same amount of medium to generate the “Heavy” medium. Jurkat cells were cultured separately in “Light” or “Heavy” medium for 7 days to allow for thorough isotope incorporation. For IAP substrate identification, 400 million cells were treated with 2 μM STS for 4 hours, harvested, lysed in M-PER mammalian protein extraction buffer (Thermo/Pierce) in the presence of protease inhibitors (100× ProteoBlock cocktail, Fermentas) and mixed with cell lysate prepared from 400 million untreated cells. […] Purified NEDDylated proteins were trypsinized and analyzed with tandem mass spectrometry (LC-MS/MS).
For SILAC experiments, Jurkat cells were cultured separately in “Light” (supplemented with regular Lys and Arg) or “Heavy” (supplemented with ^13C6^15N2 Lys and ^13C6 Arg) medium for 7 days to allow for thorough isotope incorporation. Apoptotic “Light” and “Heavy” cell extracts were prepared individually. The lysates were cleared by spinning and then diluted in 50 mM HEPES pH 7.4, 150 mM NaCl to 5 mg/ml and supplemented with 5 mM ATP, 10 mM MgCl2. Endogenous NEDD8 E1 is cell lysate was used to catalyze the reaction. HB-NEDD8 was added to both lysate at mass ratio 1:500; the catalytic tagging system was added to the “Light” lysate at mass ratio 1:1000. Equal molar of Ubc12 was added to the “Heavy” lysate. […] NEDDylated proteins were separated by one-dimensional SDS-PAGE, and trypsinized for LC-MS/MS analysis.
For liquid chromatography—Tandem mass spectrometry (LC-MS/MS) analysis, the tryptic peptides were first desalted and concentrated with a C18 Ziptip (Millipore). LC-MS/MS was carried out by reverse phase LC interfaced with a LTQ-Orbitrap (ThermoFisher Scientific) hybrid mass spectrometer. A nanoflow HPLC (NanoAcquity UPLC system, Waters Corporation) was equipped with a trap column (180 μm×20 mm, 5 μm SymmetryC18, from Waters) and an analytical column (100 μm×100 mm, 1.7 μm BEH130C18, from Waters). Peptides were eluted over a linear gradient from 2% solvent A (0.1% formic acid in water) to 35% solvent B (0.1% formic acid in acetonitrile) at 350 nL/min over 35 min. MS and MS/MS spectra were acquired in a data-dependent mode with MS spectra acquired in the Orbitrap at 30,000 resolving power and 6 CID MS/MS spectra acquired per MS in the LTQ linear ion trap. Dynamic exclusion was set at 90 seconds to prevent repeated MS/MS on the same precursor ion.
The identified peptides were searched against a random decoy protein database for evaluating the false positive rates. […] The decoy peptides were removed from the data. Protein IDs were assigned only when at least two unique peptides were identified from the same protein. For SILAC experiment, Light/Heavy ratios for the identified peptides were calculated, using ProteinProspector. The media Light/Heavy ratios of all the peptides identified for each protein were used to represent the Light/Heavy ratio of the protein.

T1 sequence (Q13490+P61081 fused): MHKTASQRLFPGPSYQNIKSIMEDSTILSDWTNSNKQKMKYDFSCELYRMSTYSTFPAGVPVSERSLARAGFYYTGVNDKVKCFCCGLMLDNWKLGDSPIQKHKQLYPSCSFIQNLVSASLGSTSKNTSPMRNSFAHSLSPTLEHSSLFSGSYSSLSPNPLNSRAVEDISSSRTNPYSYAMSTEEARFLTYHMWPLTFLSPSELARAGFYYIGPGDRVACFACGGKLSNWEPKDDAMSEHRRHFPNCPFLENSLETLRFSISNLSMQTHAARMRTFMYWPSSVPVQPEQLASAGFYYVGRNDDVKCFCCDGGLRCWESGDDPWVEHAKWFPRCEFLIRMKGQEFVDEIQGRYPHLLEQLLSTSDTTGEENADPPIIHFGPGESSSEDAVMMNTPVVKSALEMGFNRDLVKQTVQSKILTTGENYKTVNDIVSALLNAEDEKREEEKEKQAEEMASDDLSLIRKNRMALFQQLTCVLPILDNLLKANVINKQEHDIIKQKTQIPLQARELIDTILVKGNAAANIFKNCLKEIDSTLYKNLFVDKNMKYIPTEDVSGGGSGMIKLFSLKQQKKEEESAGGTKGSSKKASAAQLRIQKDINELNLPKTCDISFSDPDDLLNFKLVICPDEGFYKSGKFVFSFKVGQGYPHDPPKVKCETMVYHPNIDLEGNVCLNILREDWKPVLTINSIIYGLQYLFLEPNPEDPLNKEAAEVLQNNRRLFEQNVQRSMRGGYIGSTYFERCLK

| Molecule | L/H (Light/Heavy ratio) |
| --- | --- |
| Non-POU domain-containing octamer-binding protein: potential cIAP1 substrate | 7.52 |
| Hemoglobin subunit alpha: potential cIAP1 substrate | 5.22 |
| TAR DNA-binding protein 43: potential cIAP1 substrate | 26.9 |
| ELAV-like protein 1: potential cIAP1 substrate | 8.78 |
| Heterogeneous nuclear ribonucleoprotein U: potential cIAP1 substrate | 4.15 |
| Eukaryotic initiation factor 4A-I: potential cIAP1 substrate | 5.31 |
| Glyceraldehyde-3-phosphate dehydrogenase: potential cIAP1 substrate | 5.21 |
| Isocitrate dehydrogenase [NAD] subunit beta, mitochondrial: potential cIAP1 substrate | 14 |
| Heterogeneous nuclear ribonucleoprotein A0: potential cIAP1 substrate (protein, UniProt Q13151 1-305, looked up) Heterogeneous nuclear …: MENSQLCKLFIGGLNVQTSESGLRGHFEAFGTLTDCVVVVNPQTKRSRCFGFVTYSNVEEADAAMAASPHAVDGNTVELKRAVSREDSARPGAHAKVKKLFVGGLKGDVAEGDLIEHFSQFGTVEKAEIIADKQSGKKRGFGFVYFQNHDAADKAAVVKFHPIQGHRVEVKKAVPKEDIYSGGGGGGSRSSRGGRGGRGRGGGRDQNGLSKGGGGGYNSYGGYGGGGGGGYNAYGGGGGGSSYGGSDYGNGFGGFGSYSQHQSSYGPMKSGGGGGGGGSSWGGRSNSGPYRGGYGGGGGYGGSSF | 20.7 |
| Elongation factor 1-alpha 1: potential cIAP1 substrate (protein, UniProt P68104 2-462, looked up) Elongation factor 1-alpha 1: GKEKTHINIVVIGHVDSGKSTTTGHLIYKCGGIDKRTIEKFEKEAAEMGKGSFKYAWVLDKLKAERERGITIDISLWKFETSKYYVTIIDAPGHRDFIKNMITGTSQADCAVLIVAAGVGEFEAGISKNGQTREHALLAYTLGVKQLIVGVNKMDSTEPPYSQKRYEEIVKEVSTYIKKIGYNPDTVAFVPISGWNGDNMLEPSANMPWFKGWKVTRKDGNASGTTLLEALDCILPPTRPTDKPLRLPLQDVYKIGGIGTVPVGRVETGVLKPGMVVTFAPVNVTTEVKSVEMHHEALSEALPGDNVGFNVKNVSVKDVRRGNVAGDSKNDPPMEAAGFTAQVIILNHPGQISAGYAPVLDCHTAHIACKFAELKEKIDRRSGKKLEDGPKFLKSGDAAIVDMVPGKPMCVESFSDYPPLGRFAVRDMRQTVAVGVIKAVDKKAAGAGKVTKSAQKAQKAK | 4.4 |
| Pre-mRNA-processing factor 19: potential cIAP1 substrate (protein, UniProt Q9UMS4 2-504, looked up) Pre-mRNA-processing factor 19: SLICSISNEVPEHPCVSPVSNHVYERRLIEKYIAENGTDPINNQPLSEEQLIDIKVAHPIRPKPPSATSIPAILKALQDEWDAVMLHSFTLRQQLQTTRQELSHALYQHDAACRVIARLTKEVTAAREALATLKPQAGLIVPQAVPSSQPSVVGAGEPMDLGELVGMTPEIIQKLQDKATVLTTERKKRGKTVPEELVKPEELSKYRQVASHVGLHSASIPGILALDLCPSDTNKILTGGADKNVVVFDKSSEQILATLKGHTKKVTSVVFHPSQDLVFSASPDATIRIWSVPNASCVQVVRAHESAVTGLSLHATGDYLLSSSDDQYWAFSDIQTGRVLTKVTDETSGCSLTCAQFHPDGLIFGTGTMDSQIKIWDLKERTNVANFPGHSGPITSIAFSENGYYLATAADDSSVKLWDLRKLKNFKTLQLDNNFEVKSLIFDQSGTYLALGGTDVQIYICKQWTEILHFTEHSGLTTGVAFGHHAKFIASTGMDRSLKFYSL | 22.2 |
| Medium-chain specific acyl-CoA dehydrogenase, mitochondrial: potential cIAP1 substrate (protein, UniProt P11310 26-421, looked up) Medium-chain specific …: KANRQREPGLGFSFEFTEQQKEFQATARKFAREEIIPVAAEYDKTGEYPVPLIRRAWELGLMNTHIPENCGGLGLGTFDACLISEELAYGCTGVQTAIEGNSLGQMPIIIAGNDQQKKKYLGRMTEEPLMCAYCVTEPGAGSDVAGIKTKAEKKGDEYIINGQKMWITNGGKANWYFLLARSDPDPKAPANKAFTGFIVEADTPGIQIGRKELNMGQRCSDTRGIVFEDVKVPKENVLIGDGAGFKVAMGAFDKTRPVVAAGAVGLAQRALDEATKYALERKTFGKLLVEHQAISFMLAEMAMKVELARMSYQRAAWEVDSGRRNTYYASIAKAFAGDIANQLATDAVQILGGNGFNTEYPVEKLMRDAKIYQIYEGTSQIQRLIVAREHIDKYKN | 6.17 |
| Rho GDP-dissociation inhibitor 2: potential cIAP1 substrate (protein, UniProt P52566 2-201, looked up) Rho GDP-dissociation …: TEKAPEPHVEEDDDDELDSKLNYKPPPQKSLKELQEMDKDDESLIKYKKTLLGDGPVVTDPKAPNVVVTRLTLVCESAPGPITMDLTGDLEALKKETIVLKEGSEYRVKIHFKVNRDIVSGLKYVQHTYRTGVKVDKATFMVGSYGPRPEEYEFLTPVEEAPKGMLARGTYHNKSFFTDDDKQDHLSWEWNLSIKKEWTE | 8.76 |
| Acetyl-CoA acetyltransferase, mitochondrial: potential cIAP1 substrate (protein, UniProt P24752 34-427, looked up) Acetyl-CoA acetyltransferase, …: VSKPTLKEVVIVSATRTPIGSFLGSLSLLPATKLGSIAIQGAIEKAGIPKEEVKEAYMGNVLQGGEGQAPTRQAVLGAGLPISTPCTTINKVCASGMKAIMMASQSLMCGHQDVMVAGGMESMSNVPYVMNRGSTPYGGVKLEDLIVKDGLTDVYNKIHMGSCAENTAKKLNIARNEQDAYAINSYTRSKAAWEAGKFGNEVIPVTVTVKGQPDVVVKEDEEYKRVDFSKVPKLKTVFQKENGTVTAANASTLNDGAAALVLMTADAAKRLNVTPLARIVAFADAAVEPIDFPIAPVYAASMVLKDVGLKKEDIAMWEVNEAFSLVVLANIKMLEIDPQKVNINGGAVSLGHPIGMSGARIVGHLTHALKQGEYGLASICNGGGGASAMLIQKL | 5.67 |
| Isocitrate dehydrogenase [NADP], mitochondrial: potential cIAP1 substrate (protein, UniProt P48735 40-452, looked up) Isocitrate dehydrogenase …: ADKRIKVAKPVVEMDGDEMTRIIWQFIKEKLILPHVDIQLKYFDLGLPNRDQTDDQVTIDSALATQKYSVAVKCATITPDEARVEEFKLKKMWKSPNGTIRNILGGTVFREPIICKNIPRLVPGWTKPITIGRHAHGDQYKATDFVADRAGTFKMVFTPKDGSGVKEWEVYNFPAGGVGMGMYNTDESISGFAHSCFQYAIQKKWPLYMSTKNTILKAYDGRFKDIFQEIFDKHYKTDFDKNKIWYEHRLIDDMVAQVLKSSGGFVWACKNYDGDVQSDILAQGFGSLGLMTSVLVCPDGKTIEAEAAHGTVTRHYREHQKGRPTSTNPIASIFAWTRGLEHRGKLDGNQDLIRFAQMLEKVCVETVESGAMTKDLAGCIHGLSNVKLNEHFLNTTDFLDTIKSNLDRALGRQ | 6.51 |
| Putative annexin A2-like protein: potential cIAP1 substrate (protein, UniProt A6NMY6 2-339, looked up) Putative annexin A2-like …: STVHEILCKLSLEGDHSTPPSAYGSVKAYTNFDAERDALNIETAIKTKGVDEVTIVNIVTNRDNAQRQDIVFSYQRRTKKELASALKSALSGHLETVILGLLKTPAQYDASELKASMKGLGTDEDSLIEIICSRTNQELQEINRVYKEMYKTDLEKDIISDTSGDFRKLMVALAKGRRAEDGSVIDYELIDQDAQDLYDAGVKRKGTDVPKWISIMTERSVPHLQKVFDRYKSYSPYDMLESIRKEVKGDLENAFLNLVQRIQNKPLYFADQLYDSMKGKGTRDKVLIRIMVSRSEVDMLKIRSEFKRKYGKSLYYYIQQDTKGDYQKALLYLCGGDD | 8.75 |
